Experimental data taken from article PMC8226212, “LaPT2 Gene Encodes a Flavonoid Prenyltransferase in White Lupin” (Frontiers in Plant Science, 2021).

Legend:
Assay in all cases: HPLC product assay, yeast microsomes, Eadie-Hofstee plot
Assay type in all cases: biochemical, Lupinus albus
[1] = substrate: COc1ccc(-c2oc3cc(O)cc(O)c3c(=O)c2O)cc1; conditions: co-substrate DMAPP, 10 mM Mg2+, MOPS pH 7.0, 30°C
[2] = substrate: O=c1c(O)c(-c2ccc(O)c(O)c2)oc2cc(O)cc(O)c12; conditions: co-substrate DMAPP, 10 mM Mg2+, MOPS pH 7.0, 30°C
[3] = substrate: O=c1c(O)c(-c2ccc(O)c(O)c2)oc2cc(O)ccc12; conditions: co-substrate DMAPP, 10 mM Mg2+, MOPS pH 7.0, 30°C
[4] = substrate: O=c1c(O)c(-c2ccc(O)cc2O)oc2cc(O)cc(O)c12; conditions: co-substrate DMAPP, 10 mM Mg2+, MOPS pH 7.0, 30°C
[5] = substrate: O=c1c(O)c(-c2ccccc2)oc2cc(O)cc(O)c12; conditions: co-substrate DMAPP, 10 mM Mg2+, MOPS pH 7.0, 30°C
[6] = substrate: O=c1c(O)c(-c2ccc(O)cc2)oc2cc(O)cc(O)c12; conditions: co-substrate DMAPP, 10 mM Mg2+, MOPS pH 7.0, 30°C
[7] = substrate: O=C1c2c(O)cc(O)cc2O[C@H](c2ccc(O)cc2)[C@H]1O; conditions: co-substrate DMAPP, 10 mM Mg2+, MOPS pH 7.0, 30°C
[8] = substrate: CC(C)=CCOP(=O)(O)OP(=O)(O)O; conditions: co-substrate 400 μM kaempferol, 10 mM Mg2+, MOPS pH 7.0, 30°C

B1: LaPT2 (Lupinus albus) (protein)
chain: MGFVLAATSFPKAPSFTSGRSSWNSKEYTKNYYASSHVTTLWHKTGIIQKEPCFMMAWPQNLKLHCKVKGGDKRNYVMNAASGKSNEYETQDLDQRNNWGTLINALHVFFKFIRPTATLSLLLGATLTTLIAVEKLSDISAAYFIGLLQVMVVSSCMQVFMAGLNQLYDVEIDKINKPYLPLVSGELPFKNGVIIVATTFILGHLFPLIIGSGPLFWSFVFSSSLAIAYCADLPLLRWKRHSALTALNYIIDLGGVKPLGYVLHMQTYVFKRPPTFSRPLIFCMAMSSVFAIIIAIFKDITDMEGDEKFGIKSLSLHLGKKPVFWICVSLLQMAYVVAILMGTLSPFLWVKIAMGLGHGILASLVSYYANSVDLKSNPAIQSFYMFIWKLLTVEYFLIPLFR
notes: open reading frame in pDR196GW, yeast W303A1 microsomal fraction; contig deduced as 407 aa (GFP construct named 88-403); predicted 87-aa transit peptide, no truncation stated for the assay
Q: What does the source list for B1?
A: Km [1]: 115.19 ± 34.25 µM; Km [2]: 102.81 ± 6.41 µM; Km [3]: 10.02 ± 3.19 µM; Km [4]: 20.85 ± 3.79 µM; Km [5]: 20.66 ± 2.91 µM; Km [6]: 74.07 ± 3.78 µM; Km [7]: 20.08 ± 4.44 µM; Km [8]: 66.11 ± 7.54 µM
